From US20150368311A1 (Sanofi, published 2015)
Non-standard residues stand in square brackets, D forms with d. No end group written: not given here. Ala(4-thiazolyl) = N[C@@H](Cc1cscn1)C(=O)O; 1Nal = N[C@@H](Cc1cccc2ccccc12)C(=O)O; Phe(2-F) = N[C@@H](Cc1ccccc1F)C(=O)O; Chg = N[C@H](C(=O)O)C1CCCCC1; Nle = CCCC[C@H](N)C(=O)O

B1: SEQ ID NO: 22 (peptide)
peptide: [Ala(4-thiazolyl)]SQGTFTSD[1Nal]SKQLESRRAQDFIEWLLATGPESGAPPPS-OH
modifications: N-terminus assumed
SMILES: CC[C@H](C)[C@H](NC(=O)[C@H](Cc1ccccc1)NC(=O)[C@H](CC(=O)O)NC(=O)[C@H](CCC(N)=O)NC(=O)[C@H](C)NC(=O)[C@H](CCCNC(=N)N)NC(=O)[C@H](CCCNC(=N)N)NC(=O)[C@H](CO)NC(=O)[C@H](CCC(=O)O)NC(=O)[C@H](CC(C)C)NC(=O)[C@H](CCC(N)=O)NC(=O)[C@H](CCCCN)NC(=O)[C@H](CO)NC(=O)[C@H](Cc1cccc2ccccc12)NC(=O)[C@H](CC(=O)O)NC(=O)[C@H](CO)NC(=O)[C@@H](NC(=O)[C@H](Cc1ccccc1)NC(=O)[C@@H](NC(=O)CNC(=O)[C@H](CCC(N)=O)NC(=O)[C@H](CO)NC(=O)[C@@H](N)Cc1cscn1)[C@@H](C)O)[C@@H](C)O)C(=O)N[C@@H](CCC(=O)O)C(=O)N[C@@H](Cc1c[nH]c2ccccc12)C(=O)N[C@@H](CC(C)C)C(=O)N[C@@H](CC(C)C)C(=O)N[C@@H](C)C(=O)N[C@H](C(=O)NCC(=O)N1CCC[C@H]1C(=O)N[C@@H](CCC(=O)O)C(=O)N[C@@H](CO)C(=O)NCC(=O)N[C@@H](C)C(=O)N1CCC[C@H]1C(=O)N1CCC[C@H]1C(=O)N1CCC[C@H]1C(=O)N[C@@H](CO)C(=O)O)[C@@H](C)O
B2: SEQ ID NO: 18 (peptide)
peptide: [Ala(4-thiazolyl)]SQGTFTSD[Phe(2-F)]SKQ[Nle]ESRRAQDFIEWLLATGPESGAPPPS-OH
modifications: N-terminus assumed
SMILES: CCCC[C@H](NC(=O)[C@H](CCC(N)=O)NC(=O)[C@H](CCCCN)NC(=O)[C@H](CO)NC(=O)[C@H](Cc1ccccc1F)NC(=O)[C@H](CC(=O)O)NC(=O)[C@H](CO)NC(=O)[C@@H](NC(=O)[C@H](Cc1ccccc1)NC(=O)[C@@H](NC(=O)CNC(=O)[C@H](CCC(N)=O)NC(=O)[C@H](CO)NC(=O)[C@@H](N)Cc1cscn1)[C@@H](C)O)[C@@H](C)O)C(=O)N[C@@H](CCC(=O)O)C(=O)N[C@@H](CO)C(=O)N[C@@H](CCCNC(=N)N)C(=O)N[C@@H](CCCNC(=N)N)C(=O)N[C@@H](C)C(=O)N[C@@H](CCC(N)=O)C(=O)N[C@@H](CC(=O)O)C(=O)N[C@@H](Cc1ccccc1)C(=O)N[C@H](C(=O)N[C@@H](CCC(=O)O)C(=O)N[C@@H](Cc1c[nH]c2ccccc12)C(=O)N[C@@H](CC(C)C)C(=O)N[C@@H](CC(C)C)C(=O)N[C@@H](C)C(=O)N[C@H](C(=O)NCC(=O)N1CCC[C@H]1C(=O)N[C@@H](CCC(=O)O)C(=O)N[C@@H](CO)C(=O)NCC(=O)N[C@@H](C)C(=O)N1CCC[C@H]1C(=O)N1CCC[C@H]1C(=O)N1CCC[C@H]1C(=O)N[C@@H](CO)C(=O)O)[C@@H](C)O)[C@@H](C)CC
B3: SEQ ID NO: 20 (peptide)
peptide: [Ala(4-thiazolyl)]SQGTFTSD[Chg]SKQ[Nle]ESRRAQDFIEWLLATGPESGAPPPS-OH
modifications: N-terminus assumed
SMILES: CCCC[C@H](NC(=O)[C@H](CCC(N)=O)NC(=O)[C@H](CCCCN)NC(=O)[C@H](CO)NC(=O)[C@@H](NC(=O)[C@H](CC(=O)O)NC(=O)[C@H](CO)NC(=O)[C@@H](NC(=O)[C@H](Cc1ccccc1)NC(=O)[C@@H](NC(=O)CNC(=O)[C@H](CCC(N)=O)NC(=O)[C@H](CO)NC(=O)[C@@H](N)Cc1cscn1)[C@@H](C)O)[C@@H](C)O)C1CCCCC1)C(=O)N[C@@H](CCC(=O)O)C(=O)N[C@@H](CO)C(=O)N[C@@H](CCCNC(=N)N)C(=O)N[C@@H](CCCNC(=N)N)C(=O)N[C@@H](C)C(=O)N[C@@H](CCC(N)=O)C(=O)N[C@@H](CC(=O)O)C(=O)N[C@@H](Cc1ccccc1)C(=O)N[C@H](C(=O)N[C@@H](CCC(=O)O)C(=O)N[C@@H](Cc1c[nH]c2ccccc12)C(=O)N[C@@H](CC(C)C)C(=O)N[C@@H](CC(C)C)C(=O)N[C@@H](C)C(=O)N[C@H](C(=O)NCC(=O)N1CCC[C@H]1C(=O)N[C@@H](CCC(=O)O)C(=O)N[C@@H](CO)C(=O)NCC(=O)N[C@@H](C)C(=O)N1CCC[C@H]1C(=O)N1CCC[C@H]1C(=O)N1CCC[C@H]1C(=O)N[C@@H](CO)C(=O)O)[C@@H](C)O)[C@@H](C)CC
B4: SEQ ID NO: 19 (peptide)
peptide: [Ala(4-thiazolyl)]SQGTFTSD[1Nal]SKQ[Nle]ESRRAQDFIEWLLATGPESGAPPPS-OH
modifications: N-terminus assumed
SMILES: CCCC[C@H](NC(=O)[C@H](CCC(N)=O)NC(=O)[C@H](CCCCN)NC(=O)[C@H](CO)NC(=O)[C@H](Cc1cccc2ccccc12)NC(=O)[C@H](CC(=O)O)NC(=O)[C@H](CO)NC(=O)[C@@H](NC(=O)[C@H](Cc1ccccc1)NC(=O)[C@@H](NC(=O)CNC(=O)[C@H](CCC(N)=O)NC(=O)[C@H](CO)NC(=O)[C@@H](N)Cc1cscn1)[C@@H](C)O)[C@@H](C)O)C(=O)N[C@@H](CCC(=O)O)C(=O)N[C@@H](CO)C(=O)N[C@@H](CCCNC(=N)N)C(=O)N[C@@H](CCCNC(=N)N)C(=O)N[C@@H](C)C(=O)N[C@@H](CCC(N)=O)C(=O)N[C@@H](CC(=O)O)C(=O)N[C@@H](Cc1ccccc1)C(=O)N[C@H](C(=O)N[C@@H](CCC(=O)O)C(=O)N[C@@H](Cc1c[nH]c2ccccc12)C(=O)N[C@@H](CC(C)C)C(=O)N[C@@H](CC(C)C)C(=O)N[C@@H](C)C(=O)N[C@H](C(=O)NCC(=O)N1CCC[C@H]1C(=O)N[C@@H](CCC(=O)O)C(=O)N[C@@H](CO)C(=O)NCC(=O)N[C@@H](C)C(=O)N1CCC[C@H]1C(=O)N1CCC[C@H]1C(=O)N1CCC[C@H]1C(=O)N[C@@H](CO)C(=O)O)[C@@H](C)O)[C@@H](C)CC
B5: SEQ ID NO: 23 (peptide)
peptide: [Ala(4-thiazolyl)]SQGTFTSD[Chg]SKQLESRRAQDFIEWLLATGPESGAPPPS-OH
modifications: N-terminus assumed
SMILES: CC[C@H](C)[C@H](NC(=O)[C@H](Cc1ccccc1)NC(=O)[C@H](CC(=O)O)NC(=O)[C@H](CCC(N)=O)NC(=O)[C@H](C)NC(=O)[C@H](CCCNC(=N)N)NC(=O)[C@H](CCCNC(=N)N)NC(=O)[C@H](CO)NC(=O)[C@H](CCC(=O)O)NC(=O)[C@H](CC(C)C)NC(=O)[C@H](CCC(N)=O)NC(=O)[C@H](CCCCN)NC(=O)[C@H](CO)NC(=O)[C@@H](NC(=O)[C@H](CC(=O)O)NC(=O)[C@H](CO)NC(=O)[C@@H](NC(=O)[C@H](Cc1ccccc1)NC(=O)[C@@H](NC(=O)CNC(=O)[C@H](CCC(N)=O)NC(=O)[C@H](CO)NC(=O)[C@@H](N)Cc1cscn1)[C@@H](C)O)[C@@H](C)O)C1CCCCC1)C(=O)N[C@@H](CCC(=O)O)C(=O)N[C@@H](Cc1c[nH]c2ccccc12)C(=O)N[C@@H](CC(C)C)C(=O)N[C@@H](CC(C)C)C(=O)N[C@@H](C)C(=O)N[C@H](C(=O)NCC(=O)N1CCC[C@H]1C(=O)N[C@@H](CCC(=O)O)C(=O)N[C@@H](CO)C(=O)NCC(=O)N[C@@H](C)C(=O)N1CCC[C@H]1C(=O)N1CCC[C@H]1C(=O)N1CCC[C@H]1C(=O)N[C@@H](CO)C(=O)O)[C@@H](C)O
B6: SEQ ID NO: 21 (peptide)
peptide: [Ala(4-thiazolyl)]SQGTFTSD[Phe(2-F)]SKQLESRRAQDFIEWLLATGPESGAPPPS-OH
modifications: N-terminus assumed
SMILES: CC[C@H](C)[C@H](NC(=O)[C@H](Cc1ccccc1)NC(=O)[C@H](CC(=O)O)NC(=O)[C@H](CCC(N)=O)NC(=O)[C@H](C)NC(=O)[C@H](CCCNC(=N)N)NC(=O)[C@H](CCCNC(=N)N)NC(=O)[C@H](CO)NC(=O)[C@H](CCC(=O)O)NC(=O)[C@H](CC(C)C)NC(=O)[C@H](CCC(N)=O)NC(=O)[C@H](CCCCN)NC(=O)[C@H](CO)NC(=O)[C@H](Cc1ccccc1F)NC(=O)[C@H](CC(=O)O)NC(=O)[C@H](CO)NC(=O)[C@@H](NC(=O)[C@H](Cc1ccccc1)NC(=O)[C@@H](NC(=O)CNC(=O)[C@H](CCC(N)=O)NC(=O)[C@H](CO)NC(=O)[C@@H](N)Cc1cscn1)[C@@H](C)O)[C@@H](C)O)C(=O)N[C@@H](CCC(=O)O)C(=O)N[C@@H](Cc1c[nH]c2ccccc12)C(=O)N[C@@H](CC(C)C)C(=O)N[C@@H](CC(C)C)C(=O)N[C@@H](C)C(=O)N[C@H](C(=O)NCC(=O)N1CCC[C@H]1C(=O)N[C@@H](CCC(=O)O)C(=O)N[C@@H](CO)C(=O)NCC(=O)N[C@@H](C)C(=O)N1CCC[C@H]1C(=O)N1CCC[C@H]1C(=O)N1CCC[C@H]1C(=O)N[C@@H](CO)C(=O)O)[C@@H](C)O
B7: SEQ ID NO: 24 (peptide)
peptide: [Ala(4-thiazolyl)]SQGTFTSD[Chg]SKQ[Nle]ESRRAQEFIEWLLATGPESGAPPPS-OH
modifications: N-terminus assumed
SMILES: CCCC[C@H](NC(=O)[C@H](CCC(N)=O)NC(=O)[C@H](CCCCN)NC(=O)[C@H](CO)NC(=O)[C@@H](NC(=O)[C@H](CC(=O)O)NC(=O)[C@H](CO)NC(=O)[C@@H](NC(=O)[C@H](Cc1ccccc1)NC(=O)[C@@H](NC(=O)CNC(=O)[C@H](CCC(N)=O)NC(=O)[C@H](CO)NC(=O)[C@@H](N)Cc1cscn1)[C@@H](C)O)[C@@H](C)O)C1CCCCC1)C(=O)N[C@@H](CCC(=O)O)C(=O)N[C@@H](CO)C(=O)N[C@@H](CCCNC(=N)N)C(=O)N[C@@H](CCCNC(=N)N)C(=O)N[C@@H](C)C(=O)N[C@@H](CCC(N)=O)C(=O)N[C@@H](CCC(=O)O)C(=O)N[C@@H](Cc1ccccc1)C(=O)N[C@H](C(=O)N[C@@H](CCC(=O)O)C(=O)N[C@@H](Cc1c[nH]c2ccccc12)C(=O)N[C@@H](CC(C)C)C(=O)N[C@@H](CC(C)C)C(=O)N[C@@H](C)C(=O)N[C@H](C(=O)NCC(=O)N1CCC[C@H]1C(=O)N[C@@H](CCC(=O)O)C(=O)N[C@@H](CO)C(=O)NCC(=O)N[C@@H](C)C(=O)N1CCC[C@H]1C(=O)N1CCC[C@H]1C(=O)N1CCC[C@H]1C(=O)N[C@@H](CO)C(=O)O)[C@@H](C)O)[C@@H](C)CC

These binders were tested against human GLP-1 receptor (human, UniProt P43220 24-463) (assay: cell-based or functional assay).

Binder | EC50 hGLP-1 R [pM], cAMP formation [pM]
B1 | 8570
B2 | 25800
B3 | 38900
B4 | 6640
B5 | 50700
B6 | 49700
B7 | 8310

What follows are binders tested against human glucagon receptor (human, UniProt P47871 26-477) (assay: cell-based or functional assay).
Sequence of human glucagon receptor (P47871 26-477): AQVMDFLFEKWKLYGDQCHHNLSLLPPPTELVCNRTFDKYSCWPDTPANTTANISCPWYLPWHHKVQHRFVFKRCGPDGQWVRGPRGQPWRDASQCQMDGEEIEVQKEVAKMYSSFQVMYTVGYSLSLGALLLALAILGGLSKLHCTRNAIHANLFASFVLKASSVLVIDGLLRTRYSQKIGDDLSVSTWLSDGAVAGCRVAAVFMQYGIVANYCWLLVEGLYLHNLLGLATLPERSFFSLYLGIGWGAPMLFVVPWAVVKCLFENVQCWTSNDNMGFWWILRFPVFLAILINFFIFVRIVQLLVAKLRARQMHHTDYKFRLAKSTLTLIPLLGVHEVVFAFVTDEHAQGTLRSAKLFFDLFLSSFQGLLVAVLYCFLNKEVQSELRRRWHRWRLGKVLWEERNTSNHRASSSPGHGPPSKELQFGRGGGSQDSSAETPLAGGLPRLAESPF

Binder | EC50 hGLUC R [pM], cAMP formation [pM]
B1 | 1
B2 | 3.1
B3 | 3.8
B4 | 0.7
B5 | 3.5
B6 | 1.4
B7 | 0.7
